From publication PMC8916002 (Proceedings of the National Academy of Sciences of the …, 2022)

What was measured:
JPH1 = test: Cocrystallization of JPH1 with phospholipids; type: binding, human; conditions: high ionic strength
[1] = molecular target: T1, JPH2 (1 to 161, 275 to 437) (human, UniProt Q9BR39-1 1-161; Q9BR39-1 275-437); test: ITC
T1 chain (looked up): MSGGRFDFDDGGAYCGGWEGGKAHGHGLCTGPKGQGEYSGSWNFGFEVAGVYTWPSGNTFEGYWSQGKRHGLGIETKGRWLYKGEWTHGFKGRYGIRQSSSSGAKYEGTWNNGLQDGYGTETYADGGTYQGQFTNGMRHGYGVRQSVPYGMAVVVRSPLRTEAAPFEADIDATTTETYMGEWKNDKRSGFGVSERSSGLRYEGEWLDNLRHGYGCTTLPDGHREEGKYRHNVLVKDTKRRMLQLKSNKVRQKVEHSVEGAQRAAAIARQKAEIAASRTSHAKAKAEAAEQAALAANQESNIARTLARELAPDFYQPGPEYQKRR

[2] = molecular target: T2, MBP-tagged JPH2 (1 to 161, 275 to 437) (human, UniProt Q9BR39-1 1-161; Q9BR39-1 275-437); test: ITC
T2 chain (looked up): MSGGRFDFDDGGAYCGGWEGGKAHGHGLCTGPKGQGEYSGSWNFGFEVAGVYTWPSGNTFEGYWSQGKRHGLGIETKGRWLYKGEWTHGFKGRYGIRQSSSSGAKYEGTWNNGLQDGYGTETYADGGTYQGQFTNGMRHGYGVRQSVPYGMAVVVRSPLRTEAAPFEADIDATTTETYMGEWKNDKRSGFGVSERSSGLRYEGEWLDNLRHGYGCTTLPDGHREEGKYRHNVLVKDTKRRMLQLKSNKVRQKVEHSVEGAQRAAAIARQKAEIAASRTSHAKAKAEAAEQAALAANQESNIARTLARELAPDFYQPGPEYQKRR

[3] = molecular target: T3, JPH1 (1 to 175, 265 to 442) (human, UniProt Q9HDC5 1-175; Q9HDC5 265-442); test: ITC
T3 chain (looked up): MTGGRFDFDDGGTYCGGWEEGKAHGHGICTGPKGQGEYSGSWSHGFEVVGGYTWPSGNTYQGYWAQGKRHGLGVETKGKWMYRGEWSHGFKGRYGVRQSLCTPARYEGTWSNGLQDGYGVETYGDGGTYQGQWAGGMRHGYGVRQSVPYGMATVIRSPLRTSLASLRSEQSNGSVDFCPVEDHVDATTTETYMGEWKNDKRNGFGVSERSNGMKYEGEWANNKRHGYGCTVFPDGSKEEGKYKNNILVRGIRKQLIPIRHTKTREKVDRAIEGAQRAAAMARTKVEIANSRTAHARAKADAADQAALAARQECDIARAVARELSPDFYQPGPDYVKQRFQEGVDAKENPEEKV

Q: Which “ligand electron density in JPH1 crystals” value (JPH1; 500 μM 8:0 PI(4,5)P2, diffraction data to 2.0 Å) does the source give for `CCCCCCCC(=O)OC[C@H](COP(=O)(O)O[C@@H]1[C@H](O)[C@H](O)[C@@H](OP(=O)(O)O)[C@H](OP(=O)(O)O)[C@H]1O)OC(=O)CCCCCCC` [8:0 PI(4,5)P2] here?
A: no significant difference density could be identified

Q: Which results are given for `CCCCCC(=O)OC[C@H](COP(=O)(O)OC[C@H](N)C(=O)O)OC(=O)CCCCC` [6:0 PS]?
A: ligand electron density in JPH1 crystals (JPH1; 2 mM 6:0 PS, diffraction data to 1.9 Å): no significant difference density could be identified; ligand electron density in JPH1 crystals (JPH1; 2 mM 6:0 PS, diffraction data to 1.9 Å, listed as PS): could not observe any density for a bound ligand

B1: CaV1.1 peptide (rabbit CaV1.1 residues 1594 to 1609) (peptide, UniProt P07293 1594-1609, looked up)
peptide: EERIFRRTGGLFGQVD
Q: How did the “stoichiometry N” value [1] turn out when B1 was run?
A: 1

Q: And the Kd [2]?
A: 1.8 µM

Q: What about the Kd [3] of the same molecule?
A: 1 to 2 µM

Q: What about the “stoichiometry N” value [3] of the same molecule?
A: 1
